Experimental findings from patent publication US20240216509A1 are described below.

The target of this test is PD-L1 CAR (2nd generation CAR, PDL1-CD28-CD3ζ) expressed on NK-92 cells (human) (UniProt P01732). Kind of test: cell-based or functional assay.
Sequence of UniProt P01732 (P01732 other isoform, or with tags, fused parts or gaps limits assumed): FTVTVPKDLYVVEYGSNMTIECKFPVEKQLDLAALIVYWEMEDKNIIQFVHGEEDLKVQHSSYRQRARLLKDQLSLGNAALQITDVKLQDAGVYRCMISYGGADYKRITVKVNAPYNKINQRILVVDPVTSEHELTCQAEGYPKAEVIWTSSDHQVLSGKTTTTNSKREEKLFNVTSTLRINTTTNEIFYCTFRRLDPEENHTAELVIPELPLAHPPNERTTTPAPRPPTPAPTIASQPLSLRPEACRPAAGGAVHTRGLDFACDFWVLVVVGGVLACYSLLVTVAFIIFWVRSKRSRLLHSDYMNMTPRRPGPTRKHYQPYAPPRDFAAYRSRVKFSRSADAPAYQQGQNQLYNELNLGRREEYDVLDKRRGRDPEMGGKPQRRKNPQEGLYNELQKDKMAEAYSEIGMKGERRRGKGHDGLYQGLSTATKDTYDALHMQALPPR

Substance “recombinant human PD-1-Fc fusion protein (rhPD-1-Fc) (from UniProt Q15116 25-167)” returned an EC50 of degranulation of CAR NK-92 over increasing concentrations of plate-bound rhPD-1-Fc of 0.61 µg/mL.
